Earlier results in article PMC5075297.

What was measured:
[1] = biological target: cellular fibronectin (Homo sapiens) (UniProt P02751)
[2] = biological target: type I collagen (Homo sapiens) (UniProt P02452)
[3] = biological target: tropoelastin (Homo sapiens) (UniProt P15502)
Sequence of UniProt P15502 (P15502 27-786): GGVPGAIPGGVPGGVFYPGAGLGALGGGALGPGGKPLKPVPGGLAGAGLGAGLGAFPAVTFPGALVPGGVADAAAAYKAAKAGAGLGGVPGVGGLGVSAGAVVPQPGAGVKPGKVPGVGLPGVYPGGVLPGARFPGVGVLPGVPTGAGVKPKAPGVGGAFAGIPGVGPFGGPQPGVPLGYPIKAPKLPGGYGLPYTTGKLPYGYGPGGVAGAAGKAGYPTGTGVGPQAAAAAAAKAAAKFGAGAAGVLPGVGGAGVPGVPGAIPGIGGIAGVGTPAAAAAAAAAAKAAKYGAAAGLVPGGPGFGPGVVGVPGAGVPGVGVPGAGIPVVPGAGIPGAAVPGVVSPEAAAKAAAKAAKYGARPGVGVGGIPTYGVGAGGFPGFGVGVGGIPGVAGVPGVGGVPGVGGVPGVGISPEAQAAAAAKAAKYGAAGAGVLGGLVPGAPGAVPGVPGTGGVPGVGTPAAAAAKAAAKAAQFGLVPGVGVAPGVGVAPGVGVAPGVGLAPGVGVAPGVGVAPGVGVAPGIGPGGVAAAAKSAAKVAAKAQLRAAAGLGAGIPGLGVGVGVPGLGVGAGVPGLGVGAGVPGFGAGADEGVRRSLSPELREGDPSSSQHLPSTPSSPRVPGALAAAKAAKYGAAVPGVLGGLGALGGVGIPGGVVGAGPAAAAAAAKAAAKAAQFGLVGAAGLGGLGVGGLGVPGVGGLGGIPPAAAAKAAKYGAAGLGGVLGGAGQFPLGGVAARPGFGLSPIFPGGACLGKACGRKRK

Sequence of UniProt P02452 (P02452 162-1218, chain 1 of 2): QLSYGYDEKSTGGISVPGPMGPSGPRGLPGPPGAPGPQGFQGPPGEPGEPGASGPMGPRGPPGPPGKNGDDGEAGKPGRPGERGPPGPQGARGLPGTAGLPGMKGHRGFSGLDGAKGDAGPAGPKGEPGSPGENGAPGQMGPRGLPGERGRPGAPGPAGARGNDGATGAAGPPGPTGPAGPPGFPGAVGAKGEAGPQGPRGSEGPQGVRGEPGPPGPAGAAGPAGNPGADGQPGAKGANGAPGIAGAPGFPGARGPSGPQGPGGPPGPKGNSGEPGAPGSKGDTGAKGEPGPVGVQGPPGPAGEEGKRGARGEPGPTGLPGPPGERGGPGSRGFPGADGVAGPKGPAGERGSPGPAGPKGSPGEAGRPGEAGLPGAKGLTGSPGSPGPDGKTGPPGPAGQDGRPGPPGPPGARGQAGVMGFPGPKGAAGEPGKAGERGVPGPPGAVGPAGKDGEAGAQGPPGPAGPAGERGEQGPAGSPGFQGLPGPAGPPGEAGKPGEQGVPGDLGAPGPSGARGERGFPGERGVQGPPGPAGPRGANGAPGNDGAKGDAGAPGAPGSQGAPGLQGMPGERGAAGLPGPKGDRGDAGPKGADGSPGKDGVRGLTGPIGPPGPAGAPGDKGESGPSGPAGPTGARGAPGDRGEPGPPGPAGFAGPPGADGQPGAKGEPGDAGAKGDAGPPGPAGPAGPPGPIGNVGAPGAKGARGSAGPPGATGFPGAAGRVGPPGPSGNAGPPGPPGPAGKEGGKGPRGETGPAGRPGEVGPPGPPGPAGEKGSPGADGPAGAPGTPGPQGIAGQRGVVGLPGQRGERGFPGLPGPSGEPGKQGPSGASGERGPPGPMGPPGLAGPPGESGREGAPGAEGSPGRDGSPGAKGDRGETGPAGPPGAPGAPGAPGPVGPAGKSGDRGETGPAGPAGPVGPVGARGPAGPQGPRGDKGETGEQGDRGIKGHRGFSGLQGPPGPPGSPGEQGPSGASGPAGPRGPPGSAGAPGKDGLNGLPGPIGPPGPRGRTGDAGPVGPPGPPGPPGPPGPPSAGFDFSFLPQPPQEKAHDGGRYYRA
Sequence of UniProt P02452 (P08123 80-1119, chain 2 of 2, further chain): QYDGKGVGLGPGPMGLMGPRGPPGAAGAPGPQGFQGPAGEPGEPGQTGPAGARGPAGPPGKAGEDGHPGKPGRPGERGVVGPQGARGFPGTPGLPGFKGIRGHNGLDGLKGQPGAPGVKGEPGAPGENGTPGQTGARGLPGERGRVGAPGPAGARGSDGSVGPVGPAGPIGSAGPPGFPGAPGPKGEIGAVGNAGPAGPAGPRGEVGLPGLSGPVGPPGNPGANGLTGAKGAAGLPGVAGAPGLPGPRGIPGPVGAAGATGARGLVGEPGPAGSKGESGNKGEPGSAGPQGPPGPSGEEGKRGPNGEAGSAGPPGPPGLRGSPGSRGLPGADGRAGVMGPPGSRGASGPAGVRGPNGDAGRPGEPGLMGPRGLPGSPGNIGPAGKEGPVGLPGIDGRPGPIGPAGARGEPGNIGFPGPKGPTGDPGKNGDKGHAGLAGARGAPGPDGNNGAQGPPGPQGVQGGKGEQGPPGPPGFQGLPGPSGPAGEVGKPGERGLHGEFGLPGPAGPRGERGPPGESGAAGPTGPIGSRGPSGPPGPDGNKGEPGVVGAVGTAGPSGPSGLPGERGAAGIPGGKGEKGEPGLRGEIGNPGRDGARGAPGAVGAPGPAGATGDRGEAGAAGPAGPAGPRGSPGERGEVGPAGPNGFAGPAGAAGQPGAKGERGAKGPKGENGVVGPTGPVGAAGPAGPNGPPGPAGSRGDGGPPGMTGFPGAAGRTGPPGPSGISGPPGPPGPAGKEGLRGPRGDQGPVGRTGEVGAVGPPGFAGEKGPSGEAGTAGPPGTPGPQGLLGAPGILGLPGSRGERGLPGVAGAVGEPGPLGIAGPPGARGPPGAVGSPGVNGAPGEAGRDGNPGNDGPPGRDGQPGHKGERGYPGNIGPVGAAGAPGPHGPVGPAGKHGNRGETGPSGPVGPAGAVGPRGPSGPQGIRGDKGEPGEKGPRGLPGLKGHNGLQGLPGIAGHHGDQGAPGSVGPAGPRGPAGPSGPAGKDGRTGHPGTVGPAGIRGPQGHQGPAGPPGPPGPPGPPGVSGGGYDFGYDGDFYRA

- Kd [1]: 2.5 nM
- Kd [2]: 5.2 nM
- Kd [3]: 1.9 nM
Substance: LOX (from UniProt P28300)
